Target: DnaJB8ΔCTD (human)
Assay: cross-linking

HspA1A (human Hsp70), sequence (P0DMV8 whole entry): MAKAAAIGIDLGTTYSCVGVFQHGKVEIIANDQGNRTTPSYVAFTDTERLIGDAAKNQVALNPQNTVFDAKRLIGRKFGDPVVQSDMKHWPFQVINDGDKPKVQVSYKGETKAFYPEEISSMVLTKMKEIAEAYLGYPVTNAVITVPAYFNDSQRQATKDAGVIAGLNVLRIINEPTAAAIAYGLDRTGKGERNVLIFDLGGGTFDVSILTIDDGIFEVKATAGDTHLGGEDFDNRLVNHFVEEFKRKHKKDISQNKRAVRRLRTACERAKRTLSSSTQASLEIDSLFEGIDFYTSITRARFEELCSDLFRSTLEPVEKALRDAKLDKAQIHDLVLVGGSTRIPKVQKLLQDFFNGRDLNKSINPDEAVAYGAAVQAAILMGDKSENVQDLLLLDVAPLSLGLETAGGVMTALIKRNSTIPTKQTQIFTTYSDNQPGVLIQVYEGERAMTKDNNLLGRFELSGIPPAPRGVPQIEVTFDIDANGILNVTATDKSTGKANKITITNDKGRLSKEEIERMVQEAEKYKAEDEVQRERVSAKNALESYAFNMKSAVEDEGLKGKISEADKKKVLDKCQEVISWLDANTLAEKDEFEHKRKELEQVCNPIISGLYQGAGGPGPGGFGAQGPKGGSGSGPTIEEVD

- total crosslinks between the JD and HspA1A across three XL-MS experiments: 14 crosslinks
Substance: HspA1A (human Hsp70) (from UniProt P0DMV8 1-641) (natural protein)

Source: article doi:10.1101/2020.01.09.899237
